Test results: the supplement of paper PMC5998384

Tests used:
HeLa Kyoto [1] = assay: solubility in G1/S (NP-40 vs SDS abundance) (log2 ratio); higher = more soluble; details: cell cycle stage: G1/S
HeLa Kyoto [2] = assay: thermal stability score vs G1/S (z-score of summed log2 fold changes over temperatures); higher = more thermally stable than in G1/S
HeLa Kyoto [3] = assay: melting temperature (median over replicates), in situ; higher = more thermally stable
HeLa Kyoto [4] = assay: solubility change mitosis vs G1/S (difference of NP-40 vs SDS log2 ratios) (log2 ratio difference); higher = more soluble in mitosis
[5] = cell cycle stage: early G1 (4.5 h after nocodazole release)
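Throughout, for melting temperature (median over replicates), in situ: HeLa Kyoto cells synchronized by double thymidine or nocodazole block, proteins quantified by TMT10plex mass spectrometry, three independent biological replicates.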
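Throughout, for solubility change mitosis vs G1/S (difference of NP-40 vs SDS log2 ratios): synchronized HeLa Kyoto cells (double thymidine block for G1/S, nocodazole release for mitosis), protein amounts in NP-40 versus SDS lysates quantified by mass spectrometry, three biological replicates.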
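Throughout, for solubility in G1/S (NP-40 vs SDS abundance): HeLa Kyoto cells arrested at G1/S by double thymidine block, proteins quantified by TMT10plex mass spectrometry in mild NP-40 versus SDS extracts, three biological replicates.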
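Throughout, for thermal stability score vs G1/S (z-score of summed log2 fold changes over temperatures): synchronized HeLa Kyoto cells, proteins quantified by TMT10plex mass spectrometry, three biological replicates, mitosis taken 0.5 h after nocodazole release, G1/S directly after double thymidine block.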

Sequence	solubility in G1/S (log2) (HeLa Kyoto [1])	thermal stability score (HeLa Kyoto [2]; [5])	thermal stability score (HeLa Kyoto [2]; cell cycle stage: mitosis)	melting temperature (HeLa Kyoto [3]; cell cycle stage: G1/S) [°C]	melting temperature (HeLa Kyoto [3]; cell cycle stage: mitosis) [°C]	solubility change mitosis (log2) (HeLa Kyoto [4])
MESAGLEQLLRELLLPDTERIRRATEQLQIVLRAPAALPALCDLLASAADPQIRQFAAVLTRRRLNTRWRRLAAEQRESLKSLILTALQRETEHCVSLSLAQLSATIFRKEGLEAWPQLLQLLQHSTHSPHSPEREMGLLLLSVVVTSRPEAFQPHHRELLRLLNETLGEVGSPGLLFYSLRTLTTMAPYLSTEDVPLARMLVPKLIMAMQTLIPIDEAKACEALEALDELLESEVPVITPYLSEVLTFCLEVARNVALGNAIRIRILCCLTFLVKVKSKALLKNRLLPPLLHTLFPIVAAEPPPGQLDPEDQDSEEEELEIELMGETPKHFAVQVVDMLALHLPPEKLCPQLMPMLEEALRSESPYQRKAGLLVLAVLSDGAGDHIRQRLLPPLLQIVCKGLEDPSQVVRNAALFALGQFSENLQPHISSYSREVMPLLLAYLKSVPLGHTHHLAKACYALENFVENLGPKVQPYLPELMECMLQLLRNPSSPRAKELAVSALGAIATAAQASLLPYFPAIMEHLREFLLTGREDLQPVQIQSLETLGVLARAVGEPMRPLAEECCQLGLGLCDQVDDPDLRRCTYSLFAALSGLMGEGLAPHLEQITTLMLLSLRSTEGIVPQYDGSSSFLLFDDESDGEEEEELMDEDVEEEDDSEISGYSVENAFFDEKEDTCAAVGEISVNTSVAFLPYMESVFEEVFKLLECPHLNVRKAAHEALGQFCCALHKACQSCPSEPNTAALQAALARVVPSYMQAVNRERERQVVMAVLEALTGVLRSCGTLTLKPPGRLAELCGVLKAVLQRKTACQDTDEEEEEEDDDQAEYDAMLLEHAGEAIPALAAAAGGDSFAPFFAGFLPLLVCKTKQGCTVAEKSFAVGTLAETIQGLGAASAQFVSRLLPVLLSTAQEADPEVRSNAIFGMGVLAEHGGHPAQEHFPKLLGLLFPLLARERHDRVRDNICGALARLLMASPTRKPEPQVLAALLHALPLKEDLEEWVTIGRLFSFLYQSSPDQVIDVAPELLRICSLILADNKIPPDTKAALLLLLTFLAKQHTDSFQAALGSLPVDKAQELQAVLGLS [IPO4]	-0.204	0.678	2.82	49.6	49.9	-0.104
MESEQLFHRGYYRNSYNSITSASSDEELLDGAGVIMDFQTSEDDNLLDGDTAVGTHYTMTNGGSINSSTHLLDLLDEPIPGVGTYDDFHTIDWVREKCKDRERHRRINSKKKESAWEMTKSLYDAWSGWLVVTLTGLASGALAGLIDIAADWMTDLKEGICLSALWYNHEQCCWGSNETTFEERDKCPQWKTWAELIIGQAEGPGSYIMNYIMYIFWALSFAFLAVSLVKVFAPYACGSGIPEIKTILSGFIIRGYLGKWTLMIKTITLVLAVASGLSLGKEGPLVHVACCCGNIFSYLFPKYSTNEAKKREVLSAASAAGVSVAFGAPIGGVLFSLEEVSYYFPLKTLWRSFFAALVAAFVLRSINPFGNSRLVLFYVEYHTPWYLFELFPFILLGVFGGLWGAFFIRANIAWCRRRKSTKFGKYPVLEVIIVAAITAVIAFPNPYTRLNTSELIKELFTDCGPLESSSLCDYRNDMNASKIVDDIPDRPAGIGVYSAIWQLCLALIFKIIMTVFTFGIKVPSGLFIPSMAIGAIAGRIVGIAVEQLAYYHHDWFIFKEWCEVGADCITPGLYAMVGAAACLGGVTRMTVSLVVIVFELTGGLEYIVPLMAAVMTSKWVGDAFGREGIYEAHIRLNGYPFLDAKEEFTHTTLAADVMRPRRNDPPLAVLTQDNMTVDDIENMINETSYNGFPVIMSKESQRLVGFALRRDLTIAIESARKKQEGIVGSSRVCFAQHTPSLPAESPRPLKLRSILDMSPFTVTDHTPMEIVVDIFRKLGLRQCLVTHNGRLLGIITKKDILRHMAQTANQDPASIMFN [CLCN3]	-0.354	-0.456	-0.317	54.9	54.9	-0.0871
MESMLNKLKSTVTKVTADVTSAVMGNPVTREFDVGRHIASGGNGLAWKIFNGTKKSTKQEVAVFVFDKKLIDKYQKFEKDQIIDSLKRGVQQLTRLRHPRLLTVQHPLEESRDCLAFCTEPVFASLANVLGNWENLPSPISPDIKDYKLYDVETKYGLLQVSEGLSFLHSSVKMVHGNITPENIILNKSGAWKIMGFDFCVSSTNPSEQEPKFPCKEWDPNLPSLCLPNPEYLAPEYILSVSCETASDMYSLGTVMYAVFNKGKPIFEVNKQDIYKSFSRQLDQLSRLGSSSLTNIPEEVREHVKLLLNVTPTVRPDADQMTKIPFFDDVGAVTLQYFDTLFQRDNLQKSQFFKGLPKVLPKLPKRVIVQRILPCLTSEFVNPDMVPFVLPNVLLIAEECTKEEYVKLILPELGPVFKQQEPIQILLIFLQKMDLLLTKTPPDEIKNSVLPMVYRALEAPSIQIQELCLNIIPTFANLIDYPSMKNALIPRIKNACLQTSSLAVRVNSLVCLGKILEYLDKWFVLDDILPFLQQIPSKEPAVLMGILGIYKCTFTHKKLGITKEQLAGKVLPHLIPLSIENNLNLNQFNSFISVIKEMLNRLESEHKTKLEQLHIMQEQQKSLDIGNQMNVSEEMKVTNIGNQQIDKVFNNIGADLLTGSESENKEDGLQNKHKRASLTLEEKQKLAKEQEQAQKLKSQQPLKPQVHTPVATVKQTKDLTDTLMDNMSSLTSLSVSTPKSSASSTFTSVPSMGIGMMFSTPTDNTKRNLTNGLNANMGFQTSGFNMPVNTNQNFYSSPSTVGVTKMTLGTPPTLPNFNALSVPPAGAKQTQQRPTDMSALNNLFGPQKPKVSMNQLSQQKPNQWLNQFVPPQGSPTMGSSVMGTQMNVIGQSAFGMQGNPFFNPQNFAQPPTTMTNSSSASNDLKDLFG [SCYL2]	0.129	0.219	0.842	52.9	53.5	-0.174
MESPASSQPASMPQSKGKSKRKKDLRISCMSKPPAPNPTPPRNLDSRTFITIGDRNFEVEADDLVTISELGRGAYGVVEKVRHAQSGTIMAVKRIRATVNSQEQKRLLMDLDINMRTVDCFYTVTFYGALFREGDVWICMELMDTSLDKFYRKVLDKNMTIPEDILGEIAVSIVRALEHLHSKLSVIHRDVKPSNVLINKEGHVKMCDFGISGYLVDSVAKTMDAGCKPYMAPERINPELNQKGYNVKSDVWSLGITMIEMAILRFPYESWGTPFQQLKQVVEEPSPQLPADRFSPEFVDFTAQCLRKNPAERMSYLELMEHPFFTLHKTKKTDIAAFVKEILGEDS [MAP2K3]	-0.00226	1.81	2.08	48.8	50.1	-0.112
MESSPFNRRQWTSLSLRVTAKELSLVNKNKSSAIVEIFSKYQKAAEETNMEKKRSNTENLSQHFRKGTLTVLKKKWENPGLGAESHTDSLRNSSTEIRHRADHPPAEVTSHAASGAKADQEEQIHPRSRLRSPPEALVQGRYPHIKDGEDLKDHSTESKKMENCLGESRHEVEKSEISENTDASGKIEKYNVPLNRLKMMFEKGEPTQTKILRAQSRSASGRKISENSYSLDDLEIGPGQLSSSTFDSEKNESRRNLELPRLSETSIKDRMAKYQAAVSKQSSSTNYTNELKASGGEIKIHKMEQKENVPPGPEVCITHQEGEKISANENSLAVRSTPAEDDSRDSQVKSEVQQPVHPKPLSPDSRASSLSESSPPKAMKKFQAPARETCVECQKTVYPMERLLANQQVFHISCFRCSYCNNKLSLGTYASLHGRIYCKPHFNQLFKSKGNYDEGFGHRPHKDLWASKNENEEILERPAQLANARETPHSPGVEDAPIAKVGVLAASMEAKASSQQEKEDKPAETKKLRIAWPPPTELGSSGSALEEGIKMSKPKWPPEDEISKPEVPEDVDLDLKKLRRSSSLKERSRPFTVAASFQSTSVKSPKTVSPPIRKGWSMSEQSEESVGGRVAERKQVENAKASKKNGNVGKTTWQNKESKGETGKRSKEGHSLEMENENLVENGADSDEDDNSFLKQQSPQEPKSLNWSSFVDNTFAEEFTTQNQKSQDVELWEGEVVKELSVEEQIKRNRYYDEDEDEE [LIMA1]	-1.45	-0.923	-3.34	57.9	54.3	0.392
MESSSSSNSYFSVGPTSPSAVVLLYSKELKKWDEFEDILEERRHVSDLKFAMKCYTPLVYKGITPCKPIDIKCSVLNSEEIHYVIKQLSKESLQSVDVLREEVSEILDEMSHKLRLGAIRFCAFTLSKVFKQIFSKVCVNEEGIQKLQRAIQEHPVVLLPSHRSYIDFLMLSFLLYNYDLPVPVIAAGMDFLGMKMVGELLRMSGAFFMRRTFGGNKLYWAVFSEYVKTMLRNGYAPVEFFLEGTRSRSAKTLTPKFGLLNIVMEPFFKREVFDTYLVPISISYDKILEETLYVYELLGVPKPKESTTGLLKARKILSENFGSIHVYFGDPVSLRSLAAGRMSRSSYNLVPRYIPQKQSEDMHAFVTEVAYKMELLQIENMVLSPWTLIVAVLLQNRPSMDFDALVEKTLWLKGLTQAFGGFLIWPDNKPAEEVVPASILLHSNIASLVKDQVILKVDSGDSEVVDGLMLQHITLLMCSAYRNQLLNIFVRPSLVAVALQMTPGFRKEDVYSCFRFLRDVFADEFIFLPGNTLKDFEEGCYLLCKSEAIQVTTKDILVTEKGNTVLEFLVGLFKPFVESYQIICKYLLSEEEDHFSEEQYLAAVRKFTSQLLDQGTSQCYDVLSSDVQKNALAACVRLGVVEKKKINNNCIFNVNEPATTKLEEMLGCKTPIGKPATAKL [GNPAT]	-0.227	-0.31	-0.298	53.4	53.7	-0.163
METGAAELYDQALLGILQHVGNVQDFLRVLFGFLYRKTDFYRLLRHPSDRMGFPPGAAQALVLQVFKTFDHMARQDDEKRRQELEEKIRRKEEEEAKTVSAAAAEKEPVPVPVQEIEIDSTTELDGHQEVEKVQPPGPVKEMAHGSQEAEAPGAVAGAAEVPREPPILPRIQEQFQKNPDSYNGAVRENYTWSQDYTDLEVRVPVPKHVVKGKQVSVALSSSSIRVAMLEENGERVLMEGKLTHKINTESSLWSLEPGKCVLVNLSKVGEYWWNAILEGEEPIDIDKINKERSMATVDEEEQAVLDRLTFDYHQKLQGKPQSHELKVHEMLKKGWDAEGSPFRGQRFDPAMFNISPGAVQF [NUDCD3]	0.212	0.442	0.3	51	50.9	-0.097
METGTAPLVAPPRRHGAPAAPSPPPRGSRAGPVVVVAPGPPVTTATSAPVTLVAPGEARPAWVPGSAETSAPAPAPAPAPAPAVTGSTVVVLTLEASPEAPKPQLPSGPESPEPAAVAGVETSRALAAGADSPKTEEARPSPAPGPGTPTGTPTRTPSRTAPGALTAKPPLAPKPGTTVASGVTARSASGQVTGGHGAAAATSASAGQAPEDPSGPGTGPSGTCEAPVAVVTVTPAPEPAENSQDLGSTSSLGPGISGPRGQAPDTLSYLDSVSLMSGTLESLADDVSSMGSDSEINGLALRKTDKYGFLGGSQYSGSLESSIPVDVARQRELKWLDMFSNWDKWLSRRFQKVKLRCRKGIPSSLRAKAWQYLSNSKELLEQNPGKFEELERAPGDPKWLDVIEKDLHRQFPFHEMFAARGGHGQQDLYRILKAYTIYRPDEGYCQAQAPVAAVLLMHMPAEQAFWCLVQICDKYLPGYYSAGLEAIQLDGEIFFALLRRASPLAHRHLRRQRIDPVLYMTEWFMCIFARTLPWASVLRVWDMFFCEGVKIIFRVALVLLRHTLGSVEKLRSCQGMYETMEQLRNLPQQCMQEDFLVHEVTNLPVTEALIERENAAQLKKWRETRGELQYRPSRRLHGSRAIHEERRRQQPPLGPSSSLLSLPGLKSRGSRAAGGAPSPPPPVRRASAGPAPGPVVTAEGLHPSLPSPTGNSTPLGSSKETRKQEKERQKQEKERQKQEKEREKERQKQEKEREKQEKEREKQEKERQKQEKKAQGRKLSLRRKADGPPGPHDGGDRPSAEARQDAYF [TBC1D10B]	0.0909	0.22	0.904	51.2	52.2	-0.137
